Experimental data published in article PMC13299607.

B1: YFP-RepoMan-wt [not stated] / endogenous PP2A-B56γ [human (endogenous in HeLa)] (parent)
chain 1: MDANSKDKPPETKESAMNNAGNASFILGTGKIVTPQKHAELPPNPCTPDTFKSPLNFSTVTVEQLGITPESFVRNSAGKSSSYLKKCRRRSAVGARGSPETNHLIRFIARQQNIKNARKSPLAQDSPSQGSPALYRNVNTLRERISAFQSAFHSIKENEKMTGCLEFSEAGKESEMTDLTRKEGLSACQQSGFPAVLSSKRRRISYQRDSDENLTDAEGKVIGLQIFNIDTDRACAVETSVDLSEISSKLGSTQSGFLVEESLPLSELTETSNALKVADCVVGKGSSDAVSPDTFTAEVSSDAVPDVRSPATPACRRDLPTPKTFVLRSVLKKPSVKMCLESLQEHCNNLYDDDGTHPSLISNLPNCCKEKEAEDEENFEAPAFLNMRKRKRVTFGEDLSPEVFDESLPANTPLRKGGTPVCKKDFSGLSSLLLEQSPVPEPLPQPDFDDKGENLENIEPLQVSFAVLSSPNKSSISETLSGTDTFSSSNNHEKISSPKVGRITRTSNRRNQLVSVVEESVCNLLNTEVQPCKEKKINRRKSQETKCTKRALPKKSQVLKSCRKKKGKGKKSVQKSLYGERDIASKKPLLSPIPELPEVPEMTPSIPSIRRLGSGYFSSNGKLEEVKTPKNPVKRKDLLRHDPDLHMHQGYDKYDVSEFCSYIKSSSSLGNATSDEDPNTNIMNINENKNIPKAKNKSESENEPKAGTDSPVSCASVTEERVASDSPKPALTLQQGQEFSAGGQNAENLCQFFKISPDLNIKCERKDDFLGAAEGKLQCNRLMPNSQKDCHCLGDVLIENTKESKSQSEDLGRKPMESSSVVSCRDRKDRRRSMCYSDGRSLHLEKNGNHTPSSSVGSSVEISLENSELFKDLSDAIEQTFQRRNSETKVRRSTRLQKDLENEGLVWISLPLPSTSQKAKRRTICTFDSSGFESMSPIKETVSSRQKPQMAPPVSDPENSQGPAAGSSDEPGKRRKSFCISTLANTKATSQFKGYRRRSSLNGKGESSLTALERIEHNGERKQ
chain 2: not shown

Variants of: B1
Assay: proximity ligation assay (PLA)
Settings: with endogenous PP2A-B56γ [human (endogenous in HeLa)]; asynchronous; endogenous RepoMan knocked down using siRM; Anti-GFP+B56γ antibodies; median shown in red; read off a plot

| Variant | response (PLA foci per cell) |
| --- | --- |
| chain 1 P604A | 10 |

Same assay, conditions: with endogenous PP2A-B56γ [human (endogenous in HeLa)]; monastrol arrested; endogenous RepoMan knocked down using siRM; Anti-GFP+B56γ antibodies; median shown in red; read off a plot

| Variant | response (PLA foci per cell) |
| --- | --- |
| chain 1 P604A | 19 |

Variants of: B1
Assay: immunofluorescence, dCas9-DARPin recruitment to ectopic foci on chr 1
Settings: with mCherry-B56γ; prometaphase-arrested cells; average of 3 independent experiments, 58 (wt) 60 (P604A) cells; read off a plot

| Variant | response |
| --- | --- |
| chain 1 P604A | 0.45 |
